This note sets out measurements from patent US20220112286A1.

Experiment [1] has as its target human antigen (TRBV9 family beta-chain of the human T cell receptor), immobilized on AR2G sensors (human). The experiment in a line: BLI, OctetRed 96, antigen immobilized on AR2G sensors, antibody in solution, 1:1 global model.
For experiment [2], the target named is membrane TCR belonging to the TRBV9 family on human peripheral blood T lymphocytes (human). The experiment in a line: flow cytometry sorting of donor T lymphocytes with FITC-labelled MA-043 (100 ng/ml), then sequencing of TCR beta chains of the sorted cells. In general terms: In flow cytometry, cells or beads pass a laser one at a time.
Sequence of membrane TCR belonging to the TRBV9 family on human peripheral blood T lymphocytes (human) (A0A0B4J1U6 22-114): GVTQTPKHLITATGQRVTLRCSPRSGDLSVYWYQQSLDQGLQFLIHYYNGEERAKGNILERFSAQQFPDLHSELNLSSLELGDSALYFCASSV

B1: monoclonal antibody MA-043 (antibody, V domains shown)
VH: QVQLVQSGPELKKPGESVKVSCKASGYTFTDYLVHWVRQAPGKGLEWMGWINTYTGTPTYADDFEGRFVFSLDTSASTANLQICSLKNEDTATYYCARSWRRGLRGIGFDYWGQGTLVTVSS
VL: DIQMTQSPYSLSASVGDRVTITCKASKSINKYLAWFQQKPGKPNKLLIYDGSTLQSGVPSRFSGSGSGTDFTLTISSLEPEDFATYYCQQHNEYPPTFGQGTKLEIKR
By Kd is commonly meant the constant that tells how readily two partners part at equilibrium. Read a high Kd as weaker binding. What is called koff is the rate constant with which the complex falls apart. One may read the kon as a measure of how fast the partners come together. A lower kon goes with slower complex formation. For the molecule B1, in experiment [1], the Kd was < 1 pM, the koff was < 1e-07 s⁻¹ and the kon was found to be 329000 M⁻¹ s⁻¹. This molecule also came in with an enrichment of the sorted library with sequences encoded by the TRBV9 gene segment in experiment [2] of 91%.
